Test results taken from publication PMC4536308.

Legend:
HILI (hHILI) = HILI (hHILI) (human, UniProt Q8TC59 1-973); assay: single-molecule fluorescence
AGO2 (hAGO2) = AGO2 (hAGO2) (human, UniProt Q9UKV8 1-859); assay: single-molecule fluorescence
AUF1 p37 C207E [1] = target: T1, AUF1 p37 C207E (UniProt Q14103-4 1-287, C207E); assay: EMSA
AUF1 p37 C207E [2] = target: T1, AUF1 p37 C207E; assay: fluorescence anisotropy
AUF1 p37 = AUF1 p37 (UniProt Q14103-4 1-287); assay: fluorescence anisotropy
AUF1 p42 = AUF1 p42 (UniProt Q14103-2 1-336); assay: fluorescence anisotropy

Chain of HILI (hHILI) (Q8TC59 whole entry): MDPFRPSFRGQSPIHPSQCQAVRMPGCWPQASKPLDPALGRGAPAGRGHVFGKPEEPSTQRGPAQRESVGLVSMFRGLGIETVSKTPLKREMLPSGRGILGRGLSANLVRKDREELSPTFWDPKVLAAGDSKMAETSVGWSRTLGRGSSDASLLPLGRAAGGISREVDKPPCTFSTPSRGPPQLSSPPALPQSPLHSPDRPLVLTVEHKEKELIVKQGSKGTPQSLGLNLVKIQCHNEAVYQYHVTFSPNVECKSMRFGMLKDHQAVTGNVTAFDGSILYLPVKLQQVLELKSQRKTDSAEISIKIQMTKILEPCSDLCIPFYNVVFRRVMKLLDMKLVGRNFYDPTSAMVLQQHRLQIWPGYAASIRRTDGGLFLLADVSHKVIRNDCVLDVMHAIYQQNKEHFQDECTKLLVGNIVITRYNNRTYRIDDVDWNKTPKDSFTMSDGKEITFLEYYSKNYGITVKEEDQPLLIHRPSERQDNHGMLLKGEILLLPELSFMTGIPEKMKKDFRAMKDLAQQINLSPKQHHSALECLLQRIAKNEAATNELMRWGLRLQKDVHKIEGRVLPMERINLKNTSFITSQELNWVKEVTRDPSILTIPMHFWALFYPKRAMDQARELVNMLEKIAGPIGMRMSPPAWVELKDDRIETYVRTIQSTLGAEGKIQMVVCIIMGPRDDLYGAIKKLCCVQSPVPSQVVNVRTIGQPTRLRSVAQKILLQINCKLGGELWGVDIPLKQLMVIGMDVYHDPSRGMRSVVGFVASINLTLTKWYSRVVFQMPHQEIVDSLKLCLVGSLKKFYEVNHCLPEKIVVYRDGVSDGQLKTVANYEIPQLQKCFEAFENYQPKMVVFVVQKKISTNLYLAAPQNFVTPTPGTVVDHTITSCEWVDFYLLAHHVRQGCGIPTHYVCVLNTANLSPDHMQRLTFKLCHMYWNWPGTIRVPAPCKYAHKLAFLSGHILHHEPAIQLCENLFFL
Chain of AGO2 (hAGO2) (Q9UKV8 whole entry): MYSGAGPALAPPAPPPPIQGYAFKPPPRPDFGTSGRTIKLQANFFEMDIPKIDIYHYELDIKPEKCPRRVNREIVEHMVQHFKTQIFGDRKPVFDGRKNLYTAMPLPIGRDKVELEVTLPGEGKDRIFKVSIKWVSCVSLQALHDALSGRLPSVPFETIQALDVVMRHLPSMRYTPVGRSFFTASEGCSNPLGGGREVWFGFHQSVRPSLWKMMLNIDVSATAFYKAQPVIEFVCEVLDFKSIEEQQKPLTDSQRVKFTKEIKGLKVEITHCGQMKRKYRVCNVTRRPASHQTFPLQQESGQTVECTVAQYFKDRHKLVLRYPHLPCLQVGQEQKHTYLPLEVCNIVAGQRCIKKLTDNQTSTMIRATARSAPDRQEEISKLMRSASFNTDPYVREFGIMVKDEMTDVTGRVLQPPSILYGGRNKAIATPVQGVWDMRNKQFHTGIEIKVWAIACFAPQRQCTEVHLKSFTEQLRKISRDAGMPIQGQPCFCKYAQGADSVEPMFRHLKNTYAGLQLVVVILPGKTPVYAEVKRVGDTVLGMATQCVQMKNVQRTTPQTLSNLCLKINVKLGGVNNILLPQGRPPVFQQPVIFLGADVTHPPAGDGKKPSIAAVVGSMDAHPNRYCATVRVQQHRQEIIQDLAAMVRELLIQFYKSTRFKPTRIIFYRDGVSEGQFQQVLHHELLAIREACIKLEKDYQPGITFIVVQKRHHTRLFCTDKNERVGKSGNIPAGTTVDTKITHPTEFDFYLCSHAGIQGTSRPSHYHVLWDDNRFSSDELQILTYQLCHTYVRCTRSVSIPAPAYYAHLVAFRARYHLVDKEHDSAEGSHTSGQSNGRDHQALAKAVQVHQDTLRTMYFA

B1: Cy5-let-7b (internal) (ssRNA)
RNA: UGAGGUAGUAGGUUGUGUGGUU
modifications: amino-modifier C6 U at position 18 (iAmMC6)
HILI (hHILI)
  binding result: no binding
AGO2 (hAGO2)
  binding result: binds

B2: let-7b (32P) (ssRNA)
RNA: UGAGGUAGUAGGUUGUGUGGUU
AUF1 p37 C207E [1]
  binding result: no binding

B3: canonical AU-rich element (ssRNA)
RNA: CCCCUGGCUCACAAAUACCUUAUUUAUUUAUUUAG
AUF1 p37 C207E [1]
  binding result: no binding

B4: let-7b (Fl) (ssRNA)
RNA: UGAGGUAGUAGGUUGUGUGGUU
AUF1 p37 C207E [2]
  binding result: no binding
AUF1 p37
  Kd: 5.9 nM
AUF1 p42
  Kd: 9.7 nM

B5: let-7b* (32P or 3' Fl) (ssRNA)
RNA: CUAUACAACCUACUGCCUUCCC
AUF1 p37 C207E [1]
  binding result: no binding
